{"source": "patent US20240076386A1", "about": "(Pfizer, published 2024)", "binders": {"B1": {"name": "optimized anti-E-selectin antibody 1282 (antibody, human IgG1, kappa, V domains shown)", "VH": "EVQLVESGGGLVQPGGSLRLSCAASGYAIRSAYMHWVRQAPGKGLEWVARIDPANGNTIYVDSVEGRFTISADNAKNSAYLQMNSLRAEDTAVYYCAMDLYSTSEYWGQGTLVTVSS", "VL": "DIQMTQSPSSLSASVGDRVTITCKTSQNIERYLNWYQQKPGKAPKLLIYAASSLQSGVPSRFSGSGSGTDFTLTISSLQPEDFATYFCLQDNAWPLTFGQGTKVEIKR", "notes": "effector-null human IgG1, kappa"}, "B2": {"name": "optimized anti-E-selectin antibody 1448 (antibody, human IgG1, kappa, V domains shown)", "VH": "B1 VH with E65K, G66E", "VL": "B1 VL", "notes": "as for B1"}, "B3": {"name": "optimized anti-E-selectin antibody 1284 (antibody, human IgG1, kappa, V domains shown)", "VH": "B1 VH with D62E", "VL": "B1 VL", "notes": "as for B1"}, "B4": {"name": "optimized anti-E-selectin antibody 1444 (antibody, human IgG1, kappa, V domains shown)", "VH": "B1 VH with E65T", "VL": "B1 VL", "notes": "as for B1"}, "B5": {"name": "humanized anti-E-selectin antibody 0841 (antibody, human IgG1, kappa, V domains shown)", "VH": "B1 VH with A28N, A32S, V61A, D62E, S63K, V64F, E65K, G66I", "VL": "B1 VL with E30N, A50N, S52N, S56T, A93S", "notes": "as for B1"}}, "note": "Changes are numbered by the printed parent chain."}
{"molecular_target": "T1, free soluble human E-selectin in human serum (human, UniProt P16581 22-556, limits assumed)", "T1 construct": "also called endogenous human E-selectin", "T1 sequence (looked up)": "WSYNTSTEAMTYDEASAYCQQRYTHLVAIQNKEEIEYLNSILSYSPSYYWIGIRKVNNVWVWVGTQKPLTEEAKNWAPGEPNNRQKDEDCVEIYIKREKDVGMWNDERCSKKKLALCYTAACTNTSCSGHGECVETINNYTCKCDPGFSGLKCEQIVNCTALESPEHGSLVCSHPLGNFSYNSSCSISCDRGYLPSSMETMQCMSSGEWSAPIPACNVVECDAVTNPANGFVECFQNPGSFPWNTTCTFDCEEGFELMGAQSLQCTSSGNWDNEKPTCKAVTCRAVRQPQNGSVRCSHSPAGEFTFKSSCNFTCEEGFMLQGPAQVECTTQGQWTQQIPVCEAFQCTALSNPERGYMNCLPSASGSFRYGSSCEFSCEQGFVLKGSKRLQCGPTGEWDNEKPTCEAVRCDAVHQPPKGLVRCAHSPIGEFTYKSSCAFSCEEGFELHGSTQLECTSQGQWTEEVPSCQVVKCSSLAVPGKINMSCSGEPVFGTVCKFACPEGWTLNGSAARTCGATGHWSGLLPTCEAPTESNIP", "experiment": "IP-LC/MS/MS of free soluble E-selectin in human serum, capture by biotinylated 0164", "description": "This method quantified free soluble human E-selectin in human serum or free soluble monkey E-selectin in cynomolgus monkey serum. The method used 50 μL of serum in 250 μL of PBS which was incubated overnight at 4° C. […] After incubation, 30 μL of Invitrogen T1 streptavidin magnetic beads were added to each sample followed by incubation for 40 minutes at room temperature (shaking at 1000 rpm). Using a Hamilton Microlabstar, the magnetic beads were then washed two times with PBS/0.05% Tween-20 followed by one wash with PBS. Soluble E-selectin was then eluted from the beads with 145 μL of 30 mM hydrochloric acid (HCl) and neutralized with 32 μL of 1 M Tris HCl, pH 8. Subsequently 50 fmol of stable isotope labeled (SIL) internal standard was added, followed by the addition of dithiothreitol (DTT, 10 μL×50 mM). After incubating 35 minutes at 60° C. the samples were allowed to cool to room temperature prior to the addition of iodoacetamide (IAA, 10 μL×100 mM). Samples were then placed in the dark for 30 minutes to which 1 μg of Promega LysC/trypsin (10 μL×100 […]) was added and then digested overnight at 37° C.\nAfter overnight incubation, 50 μL of prepared sample was injected onto the nano ESILC-MS/MS.", "units": {"IC50": "nM", "IC90": "nM"}}
{"binder": "B1", "IC50": 2.4, "IC90": 4.9}
{"binder": "B2", "IC50": 1.8, "IC90": 8.6}
{"binder": "B3", "IC50": 1.1, "IC90": 4.8}
{"binder": "B4", "IC50": 1.2, "IC90": 6.5}
{"molecular_target": "T2, soluble recombinant human L-selectin (human, UniProt P14151 39-332, limits assumed)", "T2 sequence (looked up)": "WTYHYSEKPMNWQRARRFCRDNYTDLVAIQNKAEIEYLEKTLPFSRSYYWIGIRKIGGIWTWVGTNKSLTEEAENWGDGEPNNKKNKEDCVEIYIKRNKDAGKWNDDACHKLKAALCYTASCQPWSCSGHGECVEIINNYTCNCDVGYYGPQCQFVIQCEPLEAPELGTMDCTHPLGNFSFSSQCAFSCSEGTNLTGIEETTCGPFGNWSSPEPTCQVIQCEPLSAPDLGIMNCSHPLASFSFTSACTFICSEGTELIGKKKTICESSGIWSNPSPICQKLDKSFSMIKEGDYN", "experiment": "direct binding ELISA on immobilized human L-selectin, absorbance at 450 nm", "description": "Recombinant histidine tagged human P-, E- or L-selectin (Sino Biologicals), mouse E-selectin (Sino Biologicals), rat E-selectin (Sino Biologicals) and Cynomolgus monkey E-selectin (Sino Biologicals) stock solutions were prepared to a final concentration of 1 μg/mL in phosphate buffered saline without calcium and magnesium. Controls included an L-selectin directed antibody (BioLegend; 304811) or P-selectin directed antibody or a negative control IgG. One hundred μL per well of the diluted recombinant selectin proteins were added into a Ni-NTA HisSorb 96 well plate (Qiagen; 35061). Plates were incubated on an orbital shaker at room temperature for 2 hours. Following the incubation, the plates were washed 3 times with 200 μL of wash buffer (50 mM TRIS [trisaminomethane]; 150 mM sodium chloride; 0.05% polysorbate 20, pH 7.4). To decrease nonspecific binding, plates were treated with 200 μL of blocking buffer (BD Opteia buffer; 555213; BD Biosciences), incubated on an orbital shaker for 1 hour at room temperature and washed as described above. […] One hundred μL specific detection antibodies (described below) were added and incubated for 1 hour: [0556] […] Anti L-selectin and anti-rat-E-selectin antibodies were detected using 1 to 25000 dilution of Peroxidase-conjugated AffiniPure Goat Anti-Mouse IgG (H+L); (Jackson ImnnunoResearch Lab).\nPlates were washed and 100 μL per well of 1-Step Ultra TMB substrate (Thermo Scientific) was added and incubated for 5 minutes at room temperature. Reactions were stopped with 100 μL of 2 M sulfuric acid and absorbance read at 450 nm (Spectramax M5e)."}
{"binder": "B5", "binding result": "no binding (tested: 10 ug/ml)"}
{"binder": "B1", "binding result": "no binding (tested: 10 ug/ml)"}
{"binder": "B2", "binding result": "no binding (tested: 10 ug/ml)"}
{"binder": "B3", "binding result": "no binding (tested: 10 ug/ml)"}
{"binder": "B4", "binding result": "no binding (tested: 10 ug/ml)"}
